Source: paper PMC11470957, “Principles of paralog-specific targeted protein degradation engaging the C-degron E3 KLHDC2” (Nature Communications, 2024)

B1: KLHDC2 substrate binding domain (KLHDC2^SBD, 15-361) [not stated] / BRD3^BD2 (second bromodomain of BRD3, residues 306-416) [not stated] (parent)
chain 1: GPAFESYESMELACPAERSGHVAVSDGRHMFVWGGYKSNQVRGLYDFYLPREELWIYNMETGRWKKINTEGDVPPSMSGSCAVCVDRVLYLFGGHHSRGNTNKFYMLDSRSTDRVLQWERIDCQGIPPSSKDKLGVWVYKNKLIFFGGYGYLPEDKVLGTFEFDETSFWNSSHPRGWNDHVHILDTETFTWSQPITTGKAPSPRAAHACATVGNRGFVFGGRYRDARMNDLHYLNLDTWEWNELIPQGICPVGRSWHSLTPVSSDHLFLFGGFTTDKQPLSDAWTYCISKNEWIQFNHPYTEKPRLWHTACASDEGEVIVFGGCANNLLVHHRAAHSNEILIFSVQP
chain 2: GKLSEHLRYCDSILREMLSKKHAAYAWPFYKPVDAEALELHDYHDIIKHPMDLSTVKRKMDGREYPDAQGFAADVRLMFSNCYKYNPPDHEVVAMARKLQDVFEMRFAKMP

Variants of: B1
Test: ITC
Conditions: with BRD3^BD2 (second bromodomain of BRD3, residues 306-416); syringe: R56A KLHDC2SBD; cell: BRD3BD2-SJ46421 (ternary complex via PROTAC SJ46421); n = 2

Row | Kd [nM] | Variant
1 | 273 | chain 1 GPAFESYESMELACPAERSGHVAVSDGRHMFVWGGYKSNQVAGLYDFYLPREELWIYNMETGRWKKINTEGDVPPSMSGSCAVCVDRVLYLFGGHHSRGNTNKFYMLDSRSTDRVLQWERIDCQGIPPSSKDKLGVWVYKNKLIFFGGYGYLPEDKVLGTFEFDETSFWNSSHPRGWNDHVHILDTETFTWSQPITTGKAPSPRAAHACATVGNRGFVFGGRYRDARMNDLHYLNLDTWEWNELIPQGICPVGRSWHSLTPVSSDHLFLFGGFTTDKQPLSDAWTYCISKNEWIQFNHPYTEKPRLWHTACASDEGEVIVFGGCANNLLVHHRAAHSNEILIFSVQP [chain 1 R42A]

Same assay, conditions: with KLHDC2 substrate binding domain (KLHDC2^SBD, 15-361); syringe: KLHDC2SBD; cell: E344G BRD3BD2-SJ46421 (ternary complex via PROTAC SJ46421); n = 2

Row | Kd [nM] | Variant
2 | 181 | chain 2 E39G
